Numbered stars: 1 amine (or outer) side, 2 acyl side, 3 side chain; on linkers, the order of the positions; unused ones are H or OH. Square brackets hold non-standard residues; d marks the D form. Ends that are not written are not given here. * marks the point of attachment. Tyr(BN,3-Cl) = tyrosine with benzyl (BN) and 3-Cl, O=C([C@H](Cc1ccc(OCc2ccccc2)c(Cl)c1)N[*:1])[*:2]; Phe(4-NO2) = N[C@@H](Cc1ccc([N+](=O)[O-])cc1)C(=O)O; Phe(4-SO3H) = N[C@@H](Cc1ccc(S(=O)(=O)O)cc1)C(=O)O; Trp(5-CN) = N#Cc1ccc2[nH]cc(C[C@H](N)C(=O)O)c2c1; Phe(4-COOH) = N[C@@H](Cc1ccc(C(=O)O)cc1)C(=O)O; Phe(4-CN) = N#Cc1ccc(C[C@H](N)C(=O)O)cc1; Phe(4-F) = N[C@@H](Cc1ccc(F)cc1)C(=O)O; Phe(4-Me) = Cc1ccc(C[C@H](N)C(=O)O)cc1; hPhe = N[C@@H](CCc1ccccc1)C(=O)O; Phg = N[C@H](C(=O)O)c1ccccc1; Ac6c = NC1(C(=O)O)CCCCC1; Pentanoyl = CCCCC(=O)*; Ahx = NCCCCCC(=O)O
Key:
[1] = target: T1, human ORL-1 receptor (opioid receptor like 1) (human, UniProt P41146 1-370); assay: cell-based or functional assay
[2] = target: T1, human ORL-1 receptor (opioid receptor …); assay: [3H]nociceptin displacement, membranes of CHO cells transfected with human ORL-1; Ki=IC50/(1+L/Kd)
Experimental: Receptor binding studies were conducted on human ORL1 (opiate receptor like 1) transfected into Chinese hamster ovary (CHO) cells using each of the hexapeptide analog compounds of Table 3. All the compounds were evaluated for binding affinities. […] The data shown in Table 5 represents the average±SEM of at least two experiments conducted in triplicate.
Cells are removed from the plates by scraping with a rubber policeman, and then homogenized in Tris buffer using a Polytron homogenizer. Following this homogenization step, the cellular mixture is centrifuged once and washed by an additional centrifugation at 40,000×g for 15 min. The pellet formed during the centrifugation is re-suspended in 50 mM Tris, pH 7.5. […] Samples of the suspension are then filtered over glass fiber filters using a Wallac cell harvester.
For the data in Table 5, binding was conducted as described above. IC₅₀ values and Hill coefficients were determined using the curve-fitting program Prism. K₁ values were calculated using the equation K₁=IC₅₀/(1+[L]/Kd). […] The data in Table 5 represent the average±SEM of at least two experiments conducted in triplicate.

T1 sequence (P41146 whole entry): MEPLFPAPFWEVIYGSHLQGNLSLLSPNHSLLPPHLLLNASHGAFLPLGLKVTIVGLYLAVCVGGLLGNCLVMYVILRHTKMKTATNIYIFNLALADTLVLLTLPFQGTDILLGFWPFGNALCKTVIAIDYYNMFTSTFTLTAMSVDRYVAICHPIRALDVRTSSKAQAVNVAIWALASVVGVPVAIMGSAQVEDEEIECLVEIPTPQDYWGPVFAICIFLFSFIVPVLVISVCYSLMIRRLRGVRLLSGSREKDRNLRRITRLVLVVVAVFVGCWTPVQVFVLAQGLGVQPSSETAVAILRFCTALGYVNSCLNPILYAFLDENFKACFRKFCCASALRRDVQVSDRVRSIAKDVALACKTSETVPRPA

| Binder | % Stimulation of [35S]GTPγS binding [1] [%] | Ki [2] [nM] | EC50 (nM) of stimulation of [35S]GTPγS binding [1] [nM] |
| --- | --- | --- | --- |
| Nipacotyl-RYYRWR-NH2 (also called Nipacotyl-Arg-Tyr-Tyr-Arg-Trp-Arg-NH2) [VII-1-A] | < 20 | 30.3 |  |
| {β‑Nva}-RYYRWR-NH2 (also called β-Nva-Arg-Tyr-Tyr-Arg-Trp-Arg-NH2) [VII-2-A] | < 20 | 11.8 |  |
| {β‑aminoisobutryl}-RYYRWR-NH2 (also called β-aminoisobutryl-Arg-Tyr-Tyr-Arg-Trp-Arg-NH2) [VII-3-A] | 29.1 | 1.18 | 68 |
| [Ac6c]RYYRWR-NH2 (N-terminus assumed; SMILES N=C(N)NCCC[C@H](NC(=O)[C@H](Cc1c[nH]c2ccccc12)NC(=O)[C@H](CCCNC(=N)N)NC(=O)[C@H](Cc1ccc(O)cc1)NC(=O)[C@H](Cc1ccc(O)cc1)NC(=O)[C@H](CCCNC(=N)N)NC(=O)C1(N)CCCCC1)C(N)=O, also called 1-aminocyclohexanoyl-Arg-Tyr-Tyr-Arg-Trp-Arg-NH2) [VII-4-B] | < 20 | 9.25 |  |
| Pentanoyl-RYYRWR-NH2 (SMILES CCCCC(=O)N[C@@H](CCCNC(=N)N)C(=O)N[C@@H](Cc1ccc(O)cc1)C(=O)N[C@@H](Cc1ccc(O)cc1)C(=O)N[C@@H](CCCNC(=N)N)C(=O)N[C@@H](Cc1c[nH]c2ccccc12)C(=O)N[C@@H](CCCNC(=N)N)C(N)=O, also called Pentanoyl-Arg-Tyr-Tyr-Arg-Trp-Arg-NH2; Pentanoyl-RYYRWR-NH2) [VII-7-B] | < 20 | 0.16 |  |
| Ac-R[Phe(4-Me)]YRWR-NH2 (SMILES CC(=O)N[C@@H](CCCNC(=N)N)C(=O)N[C@@H](Cc1ccc(C)cc1)C(=O)N[C@@H](Cc1ccc(O)cc1)C(=O)N[C@@H](CCCNC(=N)N)C(=O)N[C@@H](Cc1c[nH]c2ccccc12)C(=O)N[C@@H](CCCNC(=N)N)C(N)=O, also called Ac-Arg-Phe(4-Me)-Tyr-Arg-Trp-Arg-NH2) [VII-15-B] | 59.8 | 0.48 | 18.8 |
| Ac-R[Phe(4-Me)][Phe(4-Me)]RWR-NH2 (SMILES CC(=O)N[C@@H](CCCNC(=N)N)C(=O)N[C@@H](Cc1ccc(C)cc1)C(=O)N[C@@H](Cc1ccc(C)cc1)C(=O)N[C@@H](CCCNC(=N)N)C(=O)N[C@@H](Cc1c[nH]c2ccccc12)C(=O)N[C@@H](CCCNC(=N)N)C(N)=O, also called Ac-Arg-Phe(4-Me)-Phe(4-Me)-Arg-Trp-Arg-NH2) [VII-17-B] | < 20 | 10.1 |  |
| Ac-R[Phe(4-COOH)]YRWR-NH2 (SMILES CC(=O)N[C@@H](CCCNC(=N)N)C(=O)N[C@@H](Cc1ccc(C(=O)O)cc1)C(=O)N[C@@H](Cc1ccc(O)cc1)C(=O)N[C@@H](CCCNC(=N)N)C(=O)N[C@@H](Cc1c[nH]c2ccccc12)C(=O)N[C@@H](CCCNC(=N)N)C(N)=O, also called Ac-Arg-Phe(4-COOH)-Tyr-Arg-Trp-Arg-NH2) [VII-19-B] | 45.5 | 40.6 | 854 |
| Ac-R[Phe(4-NO2)]YRWR-NH2 (SMILES CC(=O)N[C@@H](CCCNC(=N)N)C(=O)N[C@@H](Cc1ccc([N+](=O)[O-])cc1)C(=O)N[C@@H](Cc1ccc(O)cc1)C(=O)N[C@@H](CCCNC(=N)N)C(=O)N[C@@H](Cc1c[nH]c2ccccc12)C(=O)N[C@@H](CCCNC(=N)N)C(N)=O, also called Ac-Arg-Phe(NO2)-Tyr-Arg-Trp-Arg-NH2) [VII-23-B] | 56.6 | 0.44 | 15.7 |
| Ac-R[Phe(4-F)]YRWR-NH2 (SMILES CC(=O)N[C@@H](CCCNC(=N)N)C(=O)N[C@@H](Cc1ccc(F)cc1)C(=O)N[C@@H](Cc1ccc(O)cc1)C(=O)N[C@@H](CCCNC(=N)N)C(=O)N[C@@H](Cc1c[nH]c2ccccc12)C(=O)N[C@@H](CCCNC(=N)N)C(N)=O, also called Ac-Arg-Phe(4-F)-Tyr-Arg-Trp-Arg-NH2) [VII-31-B] | 54.4 | 0.52 | 35.7 |
| Ac-R[Phe(4-F)][Phe(4-F)]RWR-NH2 (SMILES CC(=O)N[C@@H](CCCNC(=N)N)C(=O)N[C@@H](Cc1ccc(F)cc1)C(=O)N[C@@H](Cc1ccc(F)cc1)C(=O)N[C@@H](CCCNC(=N)N)C(=O)N[C@@H](Cc1c[nH]c2ccccc12)C(=O)N[C@@H](CCCNC(=N)N)C(N)=O, also called VII-33-C; Ac-Arg-Phe(4-F)-Phe(4-F)-Arg-Trp-Arg-NH2) [VII-33-B] | < 20 | 1.51 |  |
| Ac-R[Tyr(4-Me)]YRWR-NH2 (also called Ac-Arg-Tyr(4-Me)-Tyr-Arg-Trp-Arg-NH2) [VII-35-C] | 52.1 | 0.43 | 51.1 |
| Ac-R[Tyr(4-Me)][Tyr(4-Me)]RWR-NH2 (also called Ac-Arg-Tyr(4-Me)-Tyr(4-Me)-Arg-Trp-Arg-NH2) [VII-37-B] | < 20 | 6.29 |  |
| Ac-R[Tyr(BN,3-Cl)]YRWR-NH2 (also called Ac-Arg-Tyr(BN*, 3-Cl)-Tyr-Arg-Trp-Arg-NH2) [VII-39-D] | 89 | 0.03 | 0.3 |
| Ac-R[Phe(4-CN)]YRWR-NH2 (SMILES CC(=O)N[C@@H](CCCNC(=N)N)C(=O)N[C@@H](Cc1ccc(C#N)cc1)C(=O)N[C@@H](Cc1ccc(O)cc1)C(=O)N[C@@H](CCCNC(=N)N)C(=O)N[C@@H](Cc1c[nH]c2ccccc12)C(=O)N[C@@H](CCCNC(=N)N)C(N)=O, also called Ac-Arg-Phe(4-CN)-Tyr-Arg-Trp-Arg-NH2) [VII-43-C] | 49.7 | 0.15 | 29.5 |
| Ac-R[hPhe][hPhe]RWR-NH2 (SMILES CC(=O)N[C@@H](CCCNC(=N)N)C(=O)N[C@@H](CCc1ccccc1)C(=O)N[C@@H](CCc1ccccc1)C(=O)N[C@@H](CCCNC(=N)N)C(=O)N[C@@H](Cc1c[nH]c2ccccc12)C(=O)N[C@@H](CCCNC(=N)N)C(N)=O, also called Ac-Arg-hPhe-hPhe-Arg-Trp-Arg-NH2) [VII-49-B] | < 20 | 5.49 |  |
| Ac-RYYR[Trp(5-CN)]R-NH2 (SMILES CC(=O)N[C@@H](CCCNC(=N)N)C(=O)N[C@@H](Cc1ccc(O)cc1)C(=O)N[C@@H](Cc1ccc(O)cc1)C(=O)N[C@@H](CCCNC(=N)N)C(=O)N[C@@H](Cc1c[nH]c2ccc(C#N)cc12)C(=O)N[C@@H](CCCNC(=N)N)C(N)=O, also called Ac-Arg-Tyr-Tyr-Arg-Trp(5-CN)-Arg-NH2) [VII-51-A] | 49.1 | 0.3 | 156 |
| Ac-[Ahx]YYRWR-NH2 (SMILES CC(=O)NCCCCCC(=O)N[C@@H](Cc1ccc(O)cc1)C(=O)N[C@@H](Cc1ccc(O)cc1)C(=O)N[C@@H](CCCNC(=N)N)C(=O)N[C@@H](Cc1c[nH]c2ccccc12)C(=O)N[C@@H](CCCNC(=N)N)C(N)=O, also called Ac-ε-aminocaproyl-Tyr-Tyr-Arg-Trp-Arg-NH2) [VII-53-B] | 39.5 | 29.1 | 167 |
| Ac-RYY[Ahx]WR-NH2 (SMILES CC(=O)N[C@@H](CCCNC(=N)N)C(=O)N[C@@H](Cc1ccc(O)cc1)C(=O)N[C@@H](Cc1ccc(O)cc1)C(=O)NCCCCCC(=O)N[C@@H](Cc1c[nH]c2ccccc12)C(=O)N[C@@H](CCCNC(=N)N)C(N)=O, also called Ac-Arg-Tyr-Tyr-ε-aminocaproyl-Trp-Arg-NH2) [VII-55-A] | 26.6 | 39 | 1230 |
| Ac-RYYRW[Ahx]-NH2 (SMILES CC(=O)N[C@@H](CCCNC(=N)N)C(=O)N[C@@H](Cc1ccc(O)cc1)C(=O)N[C@@H](Cc1ccc(O)cc1)C(=O)N[C@@H](CCCNC(=N)N)C(=O)N[C@@H](Cc1c[nH]c2ccccc12)C(=O)NCCCCCC(N)=O, also called Ac-Arg-Tyr-Tyr-Arg-Trp-ε-aminocaproyl-NH2) [VII-57-C] | 37.4 | 41.9 | 358 |
| Ac-RY[Phe(4-F)]RWR-NH2 (SMILES CC(=O)N[C@@H](CCCNC(=N)N)C(=O)N[C@@H](Cc1ccc(O)cc1)C(=O)N[C@@H](Cc1ccc(F)cc1)C(=O)N[C@@H](CCCNC(=N)N)C(=O)N[C@@H](Cc1c[nH]c2ccccc12)C(=O)N[C@@H](CCCNC(=N)N)C(N)=O, also called Ac-Arg-Tyr-Phe(4-F)-Arg-Trp-Arg-NH2) [VII-61-B] | 70.4 | 0.05 | 2 |
| Ac-R[Phg][Phg]RWR-NH2 (SMILES CC(=O)N[C@@H](CCCNC(=N)N)C(=O)N[C@H](C(=O)N[C@H](C(=O)N[C@@H](CCCNC(=N)N)C(=O)N[C@@H](Cc1c[nH]c2ccccc12)C(=O)N[C@@H](CCCNC(=N)N)C(N)=O)c1ccccc1)c1ccccc1, also called Ac-Arg-Phg-Phg-Arg-Trp-Arg-NH2) [VII-11-B] |  | 30.4 |  |
| Ac-RY[Phg]RWR-NH2 (SMILES CC(=O)N[C@@H](CCCNC(=N)N)C(=O)N[C@@H](Cc1ccc(O)cc1)C(=O)N[C@H](C(=O)N[C@@H](CCCNC(=N)N)C(=O)N[C@@H](Cc1c[nH]c2ccccc12)C(=O)N[C@@H](CCCNC(=N)N)C(N)=O)c1ccccc1, also called Ac-Arg-Tyr-Phg-Arg-Trp-Arg-NH2) [VII-13-B] |  | 27 |  |
| Ac-R[Phe(4-SO3H)]YRWR-NH2 (also called Ac-Arg-Phe(SO3H)-Tyr-Arg-Trp-Arg-NH2) [VII-27-B] |  | 155 |  |
